Measured values taken from patent US10889844B2, “Methods of degrading or hydrolyzing a polysaccharide” (Novozymes A/S, priority 2010, dated 2021).
Entries after “also recorded” stand apart in the source; their conditions may differ.

What was measured:
Format in all cases: biochemical
[1] = EfCBM33 boost of alpha-chitin degradation by chitinase EF0361; conditions: 2.0 mg/ml alpha-chitin, 0.3 μM EF0361, 0.3 μM EfCBM33, 1.0 mM reduced glutathione
Protocol: (§1) For use in chitin degradation experiments, eight crystals were harvested from a 2 μL drop using a nylon loop and transferred to a 4 μL drop containing the crystallization liquor from the buffer reservoir. The crystals were mixed around in order to “rinse off” potential contaminants. After the first rinse, the crystals were transferred to a new 4 μL drop containing the crystallization liquor for a second rinsing cycle. Finally, all crystals were transferred to and dissolved in a 4 μL drop containing 20 mM Tris-HCl, pH 8.0. The resulting solution was diluted by adding it to a test tube containing 46 μL 20 mM Tris-HCl, pH 8.0. […] Soluble products in the supernatant of the reaction were analyzed by MALDI-TOF, using the same methods as those used for testing the activity of CBP21. Further, the ability of EfCBM33 to boost degradation of alpha-chitin was probed by conducting an experiment where 2.0 mg/ml alpha-chitin (shrimp shells) was incubated with 0.3 μM of the chitinase from Entreococcus feacalis (protein name (EF0361)) in the presence or absence of 0.3 μM EfCBM33 and 1.0 mM reductant (R: reduced glutathione) incubated at 37° C. with agitation at 900 rpm.

[2] = EfCBM33 (dissolved crystals) on beta-chitin, MALDI-TOF MS; conditions: 2.0 mg/ml beta-chitin
Protocol: as §1

[3] = Soluble products released from AVICEL by CBM33 proteins (MALDI-TOF MS, HPAEC)
Protocol: The main peaks are annotated with molecular weight and degree of polymerization (DP).
The DP of the oxidized cellooligosaccharides is indicated by n, where n=3 (the shortest labelled oxidized cellooligosaccharide has a DP of three (=n)). […] Peak annotation was performed by comparing the chromatogram with the chromatogram obtained for a chemically prepared mixture of oxidized cellooligosaccharides with lengths varying from DP1 to DP10.
The main peaks are annotated with molecular weight and degree of polymerization (DP). All annotated peaks are Na adducts of native cellooligosaccharides, oxidized cellooligosaccharides (denoted “ox”) or the sodium salts of oxidized cellooligosaccharides.
Products were analyzed after 20 hours of incubation in 20 mM ammonium acetate buffer pH 5.0, 1 mM MgCl2 at 50° C. and 900 rpm (vertical agitation).
Separation of native and oxidized cellooligosaccharides was achieved using a Dionex Bio-LC equipped with a CarboPack PA1, a column temperature of 30° C. and a flow of 0.25 ml/min, with starting conditions, i.e., 0.1 M NaOH. A stepwise linear gradient with increasing amounts of sodium acetate was applied, going from 0.1 M NaOH and 0.1 M sodium acetate in 10 minutes, then to 0.1 M NaOH and 0.3 M sodium acetate for 25 minutes then increasing to 0.1 M NaOH and 1.0 M sodium acetate at 30 minutes which was kept for 10 minutes. Column reconditioning was achieved by a one minute gradient to initial conditions and subsequent running at initial conditions for 14 minutes. Eluted oligosaccharides were monitored by PAD detection. Chromatograms were recorded and analysed using Chromeleon 7.0 Peak identification was achieved by a procedure including the following steps: oxidized cellooligosaccharides were separated using a Dionex Ultimate 3000 UHPLC system carrying a Hypercarb 150×2.1 mm column (Thermo Scientific) running a gradient of water/0.1% TFA and acetonitrile/0.1% TFA (from 20 to 80% acetonitrile) according to the method developed by Westphal et al., 2010, Journal of Chromatography A 1217: 689-695. Eluted peaks were manually fractioned, freeze-dried, re-dissolved in MilliQ water and identified using MALDI-TOF MS. Pure oxidized cellooligosaccharides with known identity were then analyzed using the HPEAC method described above in order to establish the identity of the oxidized cellooligosaccharides generated by CelS2 and E7.

[4] = Filter paper degradation by HjCel7A with CelS2 over time (FIG. 26); conditions: 40 μg/ml CelS2, 5 μg/ml HjCel7A, pH 5.5, 50° C.
Protocol: By far the major products of these reactions are cellooligosaccharides released by the cellulases (whose activity is boosted by CelS2). In the case of HjCel7A, the main product is cellobiose and formation of this product is shown. RG, indicates the presence of a reductant, in this case reduced glutathione. […] The reactions were run at 50° C.

[5] = Cellulase boosting properties of CelS2 at various pHs with monocomponent Cel7A; conditions: CelS2 with Cel7A; data not shown
Description: When probing the cellulose boosting properties of CelS2 at various pHs using monocomponent Cel7A as the cellulose hydrolytic component, pH 5.5 came out as the optimal pH for activity. […] The most obvious reason for the decrease in cellulose hydrolysis at increasing pH is the pH stability and efficiency of Cel7A. […] CelS2 is a bacterial enzyme that originates from Streptomyces species that are known to grow optimally on cellulosic substrates in approximately neutral pH conditions (Kontro et al., 2005, Letters in Applied Microbiology 41: 32-38.).

[6] = Filter paper degradation by Cel7A with CelS2 (FIG. 21), cellobiose by HPLC
Protocol: These reactions were conducted in 50 mM sodium acetate pH 5.5, 1 mM MgCl2, at 50° C., 900 rpm (horizontal incubation). Only the cellobiose concentration was quantified as the amount of glucose was minor (less than 5% of the total sugar). Control reactions containing the cellulosic substrate suspended in the same buffer as used for the enzyme assays gave no detectable signal for either glucose or cellobiose.
(§2) The mobile phase consisted of 5 mM sulfuric acid and the flow rate used was 1.0 ml/min. Eluted glucose and cellobiose were monitored by recording refractive index. Quantification was obtained by running glucose and cellobiose standards.
(§3) Assays performed to evaluate the function of E7 and CelS2 were set up using a variety of cellulosic substrates (AVICEL®, filter paper and steam exploded wood chips from poplar), at either pH 5.5 (20 mM sodium acetate buffer), 6.5 (20 mM Bis-Tris buffer) or 8.0 (20 mM Tris buffer) in reaction mixtures containing 1.0 mM MgCl2.

[7] = Time course of filter paper cellulose degradation by […] with CelS2 (FIG. 25)
Protocol: In reactions where no CelS2 was present, 40 μg/ml purified BSA was added in order to maintain an identical protein load. […] Data are mean+/−SD (N=3); error bars indicate SD.

[8] = Filter paper degradation by […] with CelS2 or E7 (FIG. 20), sugars by HPLC
Protocol: Reactions were run in 50 mM Bis-tris/HCl pH 6.5, 1 mM MgCl2, at 50° C. and 900 rpm (horizontal agitation). Control reactions containing the cellulosic substrate suspended in the same buffer as used for the enzyme assays gave no detectable signal for either glucose or cellobiose.
as §2, §3

[9] = Degradation of steam exploded saw dust from poplar by […] with CelS2 (FIG. 24); conditions: 1.0 μM CelS2, CELLUCLAST, 1.0 mM reduced glutathione, pH 5.5, 20 hours
Protocol: as §3

[10] = Soluble oxidized products from other cellulosic variants by CelS2 (MALDI-TOF MS); conditions: results not shown
Description: Finally, other cellulosic variants (filter paper and steam exploded sawdust from poplar) were also probed as substrates for CelS2. […] This is most likely due to the high DP of the cellulose in these substrates; cleavages on the crystalline surfaces will not easily lead to release of soluble (=short) cellooligosaccharides when the overall DP is very high. AVICEL® is special in that it is a form of microcrystalline cellulose that has a very low DP (˜60-100; Wallis et al., 1992, Carbohydrate Polymers 17: 103-110 and Mormann and U, 2002, Carbohydrate Polymers 50: 349-353) compared to that of the other substrates tested.

Molecule	boost of chitinase activity on alpha-chitin [1]	oxidohydrolytic activity on beta-chitin (soluble products) [2]	CelS2 activity at pH 8.0 ([3]; AVICEL, FIG. 19)	release of soluble native/oxidized cellooligosaccharides from AVICEL ([3]; with external electron donor (ascorbic acid or reduced glutathione))	effect on Cel7A activity (cellobiose formation) [4]	activity at pH 6.5 [5]	activity at pH 8.0 [5]	optimal pH for activity [5]	improvement of Cel7A activity (cellobiose yield) ([6]; absence of external electron donor, 18 hours)	improvement of Cel7A activity (cellobiose yield) ([6]; absence of external electron donor, 40 hours)	improvement of Cel7A activity (cellobiose yield) ([6]; presence of external electron donor, 18 hours)	improvement of Cel7A activity (cellobiose yield) ([6]; presence of external electron donor, 40 hours)	effect on CELLUCLAST (CC) production of soluble glucose over time ([7]; 10 mg/ml filter paper, 0.8 μg/ml CC, pH 5.5)	Glc or Glc2 released without cellulase ([7]; reactions with only CelS2)	increase of glucose yield versus CELLUCLAST only ([8]; no external electron donor, 24 hours)	increase of glucose yield versus CELLUCLAST only ([8]; no external electron donor, 120 hours)	increase of glucose yield versus CELLUCLAST only ([8]; with external electron donor (1 mM reduced glutathione), 24 hours)	increase of glucose yield versus CELLUCLAST only ([8]; with external electron donor (1 mM reduced glutathione), 120 hours)	cellulase boosting effect (cellobiose release) [9]	soluble oxidized cellooligosaccharides [10]
EfCBM33: family 33 CBM from Enterococcus faecalis (Uniprot ID:Q838S1; SEQ ID NO: 5) (protein, listed as Enterococcus faecalis) MKKSLLTIVLAFSFVLGGAALAPTVSEAHGYVASPGSRAFFGSSAGGNLNTNVGRAQWEPQSIEAPKNTFITGKLASAGVSGFEPLDEQTATRWHKTNITTGPLDITWNLTAQHRTASWDYYITKNGWNPNQPLDIKNFDKIASIDGKQEVPNKVVKQTINIPTDRKGYHVIYAVWGIGDTVNAFYQAIDVNIQ	A boost of the chitinase activity is clearly observed	clearly showing the formation of oxidized products; also recorded: the product spectrum is dominated by even-numbered oxidized chitooligosaccharides																		
CelS2: multidomain CBM33 with C-terminal CBM2 from Streptomyces coelicolor A3(2) (SEQ ID NO: 7) (protein, Streptomyces coelicolor) MVRRTRLLTLAAVLATLLGSLGVTLLLGQGRAEAHGVAMMPGSRTYLCQLDAKTGTGALDPTNPACQAALDQSGATALYNWFAVLDSNAGGRGAGYVPDGTLCSAGDRSPYDFSAYNAARSDWPRTHLTSGATIPVEYSNWAAHPGDFRVYLTKPGWSPTSELGWDDLELIQTVTNPPQQGSPGTDGGHYYWDLALPSGRSGDALIFMQWVRSDSQENFFSCSDVVFDGGNGEVTGIRGSGSTPDPDPTPTPTDPTTPPTHTGSCMAVYSVENSWSGGFQGSVEVMNHGTEPLNGWAVQWQPGGGTTLGGVWNGSLTSGSDGTVTVRNVDHNRVVPPDGSVTFGFTATSTGNDFPVDSIGCVAP			active	soluble oligomeric products were observed	boosts the activity of the cellulase, Cel7A; also recorded: prolongs the activity of Cel7A	Less activity	no activity could be detected	5.5	5.5 fold	7.3 fold	6.7 fold	9.8 fold	production of soluble glucose continues	did not yield detectable amounts of Glc or Glc2	~3.0 fold	~9 fold	~5 fold	~11 fold	~2 fold	Soluble oxidized cellooligosaccharides were not observed
